{"source": "paper PMC2893186", "about": "(BMC Structural Biology, 2010)", "proteins": {"B1": {"name": "ZHX2 HD2 (homeodomain 2 of human zinc-fingers and homeoboxes 2), proteolytic fragment derived from OPPF_2273 (ZHX2 HD2-3) (domain or fragment)", "chain": "RKKTKEQIAHLKASFLQSQFPDDAEVYRLIEVTGLARSEIKKWFSDHRYRCQRGIVHI", "notes": "ZHX2 (zinc-fingers and homeoboxes 2), human; homeodomain 2; Expressed as construct OPPF_2273 (HD2-3, aa 444-582); HD2-HD3 was cleaved by proteolysis after purification and only HD2 crystallized; Cys494 lies in the fragment; Homodimer in the crystal, with helix I domain-swapped and a disulfide bridge between the Cys494 of the two subunits; the deposited entry would show the ordered residues; also …"}}, "biological_target": "the molecule itself", "experiment": "crystal structure; crystals grown from purified His-tagged ZHX2 HD2-3 (OPPF_2273), 20% PEG6000, 0.2 M LiCl, HEPES pH7; protein cleaved in the droplet, two molecules of HD2 in the asymmetric unit; 2.70 Å, data at 100 K", "data": [{"protein": "B1", "values": [{"measurement": "stoichiometry N", "result": 2}]}]}
